Test results reported in patent publication US20260167959A1, “APTAZYME-BASED REGULATABLE GENE EXPRESSION SYSTEMS” (REJUVENATE BIO INC, priority 2022, published 2026).

B1: RA302 (nucleic acid)
DNA: GCGCGTCCTGGATTCGCGGAAACGCGTACATCCAGCTGACGAGAATACCAGCATCGTCTTGATGCCCTTGGAAGTCTAGTCCCAAATAGGACGAAACGCGC
modifications: expressed or natural sequence
B2: RA293 (nucleic acid)
DNA: GCGGGAATACCAGCATCGTCTTGATGCCCTTGGAAGTCCCGTCCTGGATTCGCGGAAACGCGTACATCCAGCTGACGAGTCCCAAATAGGACGAAACGCGC
modifications: expressed or natural sequence
B3: RA297 (nucleic acid)
DNA: GCGCGGGAATACCAGCATCGTCTTGATGCCCTTGGAAGTCCTCCTGGATTCGCGGAAACGCGTACATCCAGCTGACGAGTCCCAAATAGGACGAAACGCGC
modifications: expressed or natural sequence
B4: RA299 (nucleic acid)
DNA: GCGCGTAGTGATACCAGCATCGTCTTGATGCCCTTGGCAGCACTCCTGGATTCGCGGAAACGCGTACATCCAGCTGACGAGTCCCAAATAGGACGAAACGCGC
modifications: expressed or natural sequence
B5: RA296 (nucleic acid)
DNA: GCGCGTCCTGGATTCGCGGAAACGCGTACATCCAGCTGACGAGTCCCAAATAGGAGAATACCAGCATCGTCTTGATGCCCTTGGAAGTCTACGAAACGCGC
modifications: expressed or natural sequence
B6: RA294 (nucleic acid)
DNA: GCGCGTCCTGGATTCGCGGAAACGAGAATACCAGCATCGTCTTGATGCCCTTGGAAGTCTCGCGTACATCCAGCTGACGAGTCCCAAATAGGACGAAACGCGC
modifications: expressed or natural sequence
B7: RA295 (nucleic acid)
DNA: GCGCGTCCTGGATTCGCGGAAAGGAATACCAGCATCGTCTTGATGCCCTTGGAAGTCCCGCGTACATCCAGCTGACGAGTCCCAAATAGGACGAAACGCGC
modifications: expressed or natural sequence
B8: RA300 (nucleic acid)
DNA: GCGCGTCCTGGCGAGAATACCAGCATCGTCTTGATGCCCTTGGAAGTCTCGATTCGCGGAAACGCGTACATCCAGCTGACGAGTCCCAAATAGGACGAAACGCGC
modifications: expressed or natural sequence
B9: RA301 (nucleic acid)
DNA: GCGAGTGATACCAGCATCGTCTTGATGCCCTTGGCAGCACTCGTCCTGGATTCGCGGAAACGCGTACATCCAGCTGACGAGTCCCAAATAGGACGAAACGCGC
modifications: expressed or natural sequence
B10: RA298 (nucleic acid)
DNA: GCCGGAATACCAGCATCGTCTTGATGCCCTTGGAAGTCCGGCGTCCTGGATTCGCGGAAACGCGTACATCCAGCTGACGAGTCCCAAATAGGACGAAACGCGC
modifications: expressed or natural sequence
B11: RA029 (nucleic acid)
DNA: GCGCGTCCTGGATTCGCGGAAACGGGAATACCAGCATCGTCTTGATGCCCTTGGAAGTCCCGTACATCCAGCTGACGAGTCCCAAATAGGACGAAACGCGC
modifications: expressed or natural sequence

test system: Renilla luciferase RNA; test: Barcoded aptazyme variant library screen: un-cleaved Renilla luciferase RNA by barcode read counts, HEK293-T cells; type: cell-based; settings: un-cleaved Renilla luciferase RNA by barcode read counts; with 1 mM theophylline (ON) over without theophylline (OFF); HEK293-T cells; triplicate
From the text: Based on the findings from Example 1, an aptazyme variant library was generated from the T3H48 ribozyme with one of seven variant theophylline aptamers inserted sequentially after each nucleotide of the DNA sequence encoding the T3H48 ribozyme sequence. […] The seven variant theophylline aptamers vary in their communication channels, which are the ribonucleotides of the aptamer that attach to the ribozyme sequence (see, Table 2).
The library was barcoded with unique sequences of nine nucleotides flanked by forward and reverse primer amplification sequences.
The aptazyme library was then PCR amplified and cloned into the psiCHECK™-2 dual luciferase vector in the 3′ UTR of the Renilla luciferase gene. […] The next day, the cells were isolated followed by DNA and RNA extraction using standard methods. The purified RNA was then converted to cDNA and the barcoded portion of the aptazyme library was PCR amplified. Similarly, the DNA was PCR amplified and all the samples were sequenced. All experimental conditions (with theophylline and without theophylline) were performed in triplicate. The read count for each barcode was determined with a custom build code and the data was normalized to identify the un-cleaved fractions of the Renilla luciferase RNA from cells that were cultured in the presence or absence of theophylline for each aptazyme, which was used to obtain the fold-change between ON- and OFF-states (FIG. 2).

Row | Molecule | Fold change in RNA expression between the ON state and the OFF state
1 | B1 | 1.0

same assay, conditions: un-cleaved Renilla luciferase RNA, HEK293-T cells cultured with 1 mM theophylline (ON) over without theophylline (OFF); barcode read counts, triplicate

Row | Molecule | Fold change in RNA expression between the ON state and the OFF state [fold]
2 | B2 | 1.0
3 | B3 | 1.0
4 | B4 | 1.0
5 | B5 | 1.0
6 | B6 | 1.0
7 | B7 | 1.0
8 | B8 | 1.0
9 | B9 | 1.0
10 | B10 | 1.0
11 | B11 | 2.3
